Source: patent publication US20250154240A1, “ANTI-HUMAN CXCL1 ANTIBODY” (CHIOME BIOSCIENCE INC., priority 2022, published 2025)

Experiments:
[1] = target: T1, HuCXCL3 (Homo sapiens, UniProt P19876); assay: ELISA, inhibition of binding of HuCXCL3 to GAG (heparin, heparan sulfate); assay type: biochemical; details: antibody 0 to 10 μg/mL; biotin-labeled heparin or heparan sulfate 10 μg/mL
T1 construct: purchased PROTEINTECH
T1 sequence (P19876 35-107): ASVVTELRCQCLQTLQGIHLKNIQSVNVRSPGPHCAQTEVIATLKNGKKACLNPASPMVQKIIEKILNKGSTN
Procedure: (§1) Thus, the effect of Hu5A-5E11 on the binding of CXCLs to GAG was evaluated by ELISA assay using plates on which the antigen (HuCXCL1 protein) used for immunization or HuCXCL2, 3 and 5 and MsCXCL1 and 2 proteins had been directly immobilized. CXCLs other than HuCXCL1 were purchased from PROTEINTECH and used. Biotin-labeled heparan sulfate and heparin were purchased from PG Research and used.
(§2) To 96-well plates, phosphate-buffered saline (PBS) containing 3 μg/mL of HuCXCL1, 2, 3 or 5 or MsCXCL1 or 10 μg/mL of MsCXCL2 was added in a volume of 50 μL per well, and the plates were allowed to stand overnight at 4° C. After removal of the antigen solutions, PBS containing 0.05% Tween-20 (hereinafter referred to as the blocking solution) was added to each well for blocking reaction, and the plates were allowed to stand at room temperature for 30 minutes. […] TMB (Dako) was added as a chromogenic substrate solution to cause color development, and 1 N sulfuric acid was added to stop the reaction, followed by measurement of absorbance at 450 nm. The binding rate of CXCLs to GAG was calculated as a ratio relative to the absorbance measured in the absence of the antibody, which was set to 100%.

[2] = target: T2, HuCXCL1 (Homo sapiens, UniProt P09341); assay: FACS, inhibition of binding of APC-labeled HuCXCL1 to HEK293 cells forced to express HuCXCR2; assay type: cell-based; details: APC-labeled ligand 10 μg/mL; HEK293 cells expressing HuCXCR2
T2 construct: made in house; host or cells: Expi293 expression system (transient), protein from the culture supernatant
T2 sequence (P09341 35-107): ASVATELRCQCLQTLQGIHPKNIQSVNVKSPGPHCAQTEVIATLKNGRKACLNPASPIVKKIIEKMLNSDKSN
Procedure: (§3) Chemokines are stabilized by directly binding to GAG on the cell surface and thereby allow efficient signal transduction to their receptors. […] Then, to evaluate whether Hu5A-5E11 inhibits the binding of CXCLs to cells, the binding of fluorescently labeled CXCLs to cells was measured as fluorescence intensity by flow cytometry in FACS. For this purpose, HEK293 cells forced to express HuCXCR2 were used. For use as HuCXCL1, 2, 3 and 5 and MsCXCL1, the proteins in above were labeled with APC.
(§4) The cultured cells were detached and washed with PBS, and then suspended at 5.0× 10^5 cells/mL in PBS containing 1% BSA (hereinafter referred to as the FACS buffer). Each of the APC-labeled ligands and Hu5A-5E11 were mixed at final concentrations of 10 μg/mL and 16.7 μg/mL, respectively, and reacted at room temperature for 30 minutes, and then added to the cell suspension and reacted on ice for 30 minutes. After washing with the FACS buffer, the cells were suspended again in PBS containing 1% 7-AAD, 0.5% BSA and 2 mM EDTA, followed by the above flow cytometry to measure fluorescence intensity.

[3] = target: T3, HuCXCL2 (Homo sapiens, UniProt P19875); assay: FACS, inhibition of binding of APC-labeled HuCXCL2 to HEK293 cells forced to express HuCXCR2; assay type: cell-based; details: APC-labeled ligand 10 μg/mL; HEK293 cells expressing HuCXCR2
T3 construct: purchased PROTEINTECH
T3 sequence (P19875 35-107): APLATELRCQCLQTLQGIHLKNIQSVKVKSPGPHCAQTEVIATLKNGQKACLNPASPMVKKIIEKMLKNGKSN
Procedure: as §3, §4

[4] = target: T1, HuCXCL3; assay: FACS, inhibition of binding of APC-labeled HuCXCL3 to HEK293 cells forced to express HuCXCR2; assay type: cell-based; details: APC-labeled ligand 10 μg/mL; HEK293 cells expressing HuCXCR2
Procedure: as §3, §4

[5] = target: T4, HuCXCL5 (Homo sapiens, UniProt P42830); assay: ELISA, inhibition of binding of HuCXCL5 to GAG (heparin, heparan sulfate); assay type: biochemical; parameters: purchased PROTEINTECH; details: antibody 0 to 10 μg/mL; biotin-labeled heparin or heparan sulfate 10 μg/mL
T4 sequence (P42830 37-114): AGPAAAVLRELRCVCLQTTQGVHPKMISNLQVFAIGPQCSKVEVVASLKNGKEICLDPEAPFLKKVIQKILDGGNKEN
Procedure: as §1, §2

[6] = target: T4, HuCXCL5; assay: FACS, inhibition of binding of APC-labeled HuCXCL5 to HEK293 cells forced to express HuCXCR2; assay type: cell-based; parameters: purchased PROTEINTECH; host or cells: CXCR2: transfected HEK293 cells; details: APC-labeled ligand 10 μg/mL; HEK293 cells expressing HuCXCR2
Procedure: as §3, §4

B1: Hu5A-5E11: humanized antibody VH1/VL1; VH SEQ ID NO: 76, VL SEQ ID NO: 78 (antibody, V domains shown)
VH: QVQLVQSGAEVKKPGSSVKVSCKASGYAFSDYWMNWVRQAPGQGLEWIGQIYPGSGDTNYNAKFKGKGTITADKSTSTAYMELSSLRSEDTAVYYCARERDYDVAMDYWGQGTTVTVSS
VL: DIQMTQSPSSLSASVGDRVTITCKASQDINKYIAWFQQKPGKAPKLVIHYTSILQPGVPSRFSGSGSGTDYTFTISSLQPEDIATYYCLQYDNLPWTFGGGTKVEIK
Inhibitory activity against the binding of HuCXCL3 to GAG [1]: inhibit the binding of HuCXCL1, 2, 3 and 5 and MsCXCL1 to GAG in an antibody concentration-dependent manner
Inhibitory activity against the binding of HuCXCL1 to cells (fluorescence intensity) [2]: reduce the fluorescence intensity of the cells in an antibody concentration-dependent manner
Inhibitory activity against the binding of HuCXCL2 to cells (fluorescence intensity) [3]: reduce the fluorescence intensity of the cells in an antibody concentration-dependent manner
Inhibitory activity against the binding of HuCXCL3 to cells (fluorescence intensity) [4]: reduce the fluorescence intensity of the cells in an antibody concentration-dependent manner
Inhibitory activity against the binding of HuCXCL5 to GAG [5]: inhibit the binding of HuCXCL1, 2, 3 and 5 and MsCXCL1 to GAG in an antibody concentration-dependent manner
Inhibitory activity against the binding of HuCXCL5 to cells (fluorescence intensity) [6]: reduce the fluorescence intensity of the cells in an antibody concentration-dependent manner
